Results taken from IntAct's records for PubMed 35512704.

B1: Mothers against decapentaplegic homolog 4 (Homo sapiens), Q13485 (parent)
chain: MDNMSITNTPTSNDACLSIVHSLMCHRQGGESETFAKRAIESLVKKLKEKKDELDSLITAITTNGAHPSKCVTIQRTLDGRLQVAGRKGFPHVIYARLWRWPDLHKNELKHVKYCQYAFDLKCDSVCVNPYHYERVVSPGIDLSGLTLQSNAPSSMMVKDEYVHDFEGQPSLSTEGHSIQTIQHPPSNRASTETYSTPALLAPSESNATSTANFPNIPVASTSQPASILGGSHSEGLLQIASGPQPGQQQNGFTGQPATYHHNSTTTWTGSRTAPYTPNLPHHQNGHLQHHPPMPPHPGHYWPVHNELAFQPPISNHPAPEYWCSIAYFEMDVQVGETFKVPSSCPIVTVDGYVDPSGGDRFCLGQLSNVHRTEAIERARLHIGKGVQLECKGEGDVWVRCLSDHAVFVQSYYLDREAGRAPGDAVHKIYPSAYIKVFDLRQCHRQMQQQAATAQAAAAAQAAAVAGNIPGPGSVGGIAPAISLSAAAGIGVDDLRRLCILRMSFVKGWGPDYPRQSIKETPCWIEIHLHRALQLLDEVLHTMPIADPQPLD
partner: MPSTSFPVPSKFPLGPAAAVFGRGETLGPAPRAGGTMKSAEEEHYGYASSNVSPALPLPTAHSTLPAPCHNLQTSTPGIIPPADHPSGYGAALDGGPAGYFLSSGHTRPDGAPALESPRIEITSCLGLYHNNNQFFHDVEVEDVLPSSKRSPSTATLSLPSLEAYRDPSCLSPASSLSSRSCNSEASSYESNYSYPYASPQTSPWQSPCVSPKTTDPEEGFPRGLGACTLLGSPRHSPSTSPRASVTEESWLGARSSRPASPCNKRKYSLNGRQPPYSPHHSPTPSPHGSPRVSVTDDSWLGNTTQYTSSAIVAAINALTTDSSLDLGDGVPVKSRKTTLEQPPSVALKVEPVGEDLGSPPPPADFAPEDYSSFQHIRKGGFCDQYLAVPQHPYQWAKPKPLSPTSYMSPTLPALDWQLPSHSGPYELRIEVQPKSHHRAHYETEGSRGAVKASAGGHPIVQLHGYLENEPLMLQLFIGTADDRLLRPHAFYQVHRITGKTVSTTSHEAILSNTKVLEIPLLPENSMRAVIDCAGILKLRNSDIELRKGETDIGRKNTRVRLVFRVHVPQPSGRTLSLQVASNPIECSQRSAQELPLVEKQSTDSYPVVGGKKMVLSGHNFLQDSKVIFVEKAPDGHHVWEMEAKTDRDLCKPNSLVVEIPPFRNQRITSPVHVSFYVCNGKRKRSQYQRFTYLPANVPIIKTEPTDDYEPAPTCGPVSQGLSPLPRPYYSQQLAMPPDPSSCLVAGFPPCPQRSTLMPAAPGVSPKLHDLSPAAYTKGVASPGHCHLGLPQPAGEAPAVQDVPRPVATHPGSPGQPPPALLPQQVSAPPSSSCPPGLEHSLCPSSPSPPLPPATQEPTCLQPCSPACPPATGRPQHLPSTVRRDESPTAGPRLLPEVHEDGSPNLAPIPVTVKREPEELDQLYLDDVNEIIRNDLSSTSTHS
B2: Mothers against decapentaplegic homolog 4 (Homo sapiens), Q13485 (parent)
chain: B1 chain
partner: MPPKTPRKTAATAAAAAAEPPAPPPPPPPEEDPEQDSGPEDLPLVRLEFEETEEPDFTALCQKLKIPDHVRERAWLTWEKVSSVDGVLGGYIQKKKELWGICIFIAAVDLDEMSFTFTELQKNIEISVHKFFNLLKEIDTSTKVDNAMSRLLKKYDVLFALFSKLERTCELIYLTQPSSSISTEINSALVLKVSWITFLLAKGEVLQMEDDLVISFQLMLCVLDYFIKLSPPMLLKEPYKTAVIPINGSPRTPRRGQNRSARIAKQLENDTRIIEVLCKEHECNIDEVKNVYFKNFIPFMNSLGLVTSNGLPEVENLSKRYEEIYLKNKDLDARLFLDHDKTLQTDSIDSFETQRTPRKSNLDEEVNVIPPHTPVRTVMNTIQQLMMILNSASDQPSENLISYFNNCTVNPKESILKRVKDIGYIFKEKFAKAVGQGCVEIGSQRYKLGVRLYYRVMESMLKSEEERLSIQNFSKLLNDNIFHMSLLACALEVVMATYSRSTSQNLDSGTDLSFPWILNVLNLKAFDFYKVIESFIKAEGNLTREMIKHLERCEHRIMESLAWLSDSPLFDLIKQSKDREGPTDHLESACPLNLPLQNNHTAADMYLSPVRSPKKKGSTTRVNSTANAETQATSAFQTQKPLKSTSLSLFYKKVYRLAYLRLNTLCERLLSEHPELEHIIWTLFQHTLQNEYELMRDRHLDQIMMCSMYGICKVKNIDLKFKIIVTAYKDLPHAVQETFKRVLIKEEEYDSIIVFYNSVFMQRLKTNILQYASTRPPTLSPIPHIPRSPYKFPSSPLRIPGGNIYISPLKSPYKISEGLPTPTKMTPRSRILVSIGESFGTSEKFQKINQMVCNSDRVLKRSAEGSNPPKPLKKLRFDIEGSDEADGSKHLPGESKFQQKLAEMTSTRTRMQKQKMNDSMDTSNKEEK
B3: Mothers against decapentaplegic homolog 4 (Homo sapiens), Q13485 (parent)
chain: B1 chain
partner: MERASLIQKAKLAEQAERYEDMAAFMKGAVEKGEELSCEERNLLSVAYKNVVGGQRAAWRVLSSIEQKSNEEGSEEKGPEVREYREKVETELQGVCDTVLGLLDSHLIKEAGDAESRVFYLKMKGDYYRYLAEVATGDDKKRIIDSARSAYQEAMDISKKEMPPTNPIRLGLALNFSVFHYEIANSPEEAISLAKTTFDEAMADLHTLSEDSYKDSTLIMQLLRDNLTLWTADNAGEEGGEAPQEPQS
B4: Mothers against decapentaplegic homolog 4 (Homo sapiens), Q13485 (parent)
chain: B1 chain
partner: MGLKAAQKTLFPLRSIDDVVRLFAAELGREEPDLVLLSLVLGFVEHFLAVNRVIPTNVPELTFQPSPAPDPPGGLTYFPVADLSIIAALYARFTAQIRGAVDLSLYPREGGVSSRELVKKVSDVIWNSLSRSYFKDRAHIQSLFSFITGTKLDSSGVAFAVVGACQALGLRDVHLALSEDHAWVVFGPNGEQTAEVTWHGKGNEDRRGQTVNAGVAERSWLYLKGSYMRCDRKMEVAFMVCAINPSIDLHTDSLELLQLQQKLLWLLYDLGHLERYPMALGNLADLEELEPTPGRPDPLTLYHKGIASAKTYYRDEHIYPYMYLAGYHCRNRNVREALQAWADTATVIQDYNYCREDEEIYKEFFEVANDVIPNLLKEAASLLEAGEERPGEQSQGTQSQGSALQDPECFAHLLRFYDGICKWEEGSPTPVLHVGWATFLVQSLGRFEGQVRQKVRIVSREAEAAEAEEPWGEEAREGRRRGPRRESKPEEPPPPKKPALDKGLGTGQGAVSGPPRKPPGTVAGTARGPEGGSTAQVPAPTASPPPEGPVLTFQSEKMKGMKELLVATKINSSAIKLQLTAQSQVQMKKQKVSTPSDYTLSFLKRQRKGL
B5: Mothers against decapentaplegic homolog 4 (Homo sapiens), Q13485 (parent)
chain: B1 chain
partner: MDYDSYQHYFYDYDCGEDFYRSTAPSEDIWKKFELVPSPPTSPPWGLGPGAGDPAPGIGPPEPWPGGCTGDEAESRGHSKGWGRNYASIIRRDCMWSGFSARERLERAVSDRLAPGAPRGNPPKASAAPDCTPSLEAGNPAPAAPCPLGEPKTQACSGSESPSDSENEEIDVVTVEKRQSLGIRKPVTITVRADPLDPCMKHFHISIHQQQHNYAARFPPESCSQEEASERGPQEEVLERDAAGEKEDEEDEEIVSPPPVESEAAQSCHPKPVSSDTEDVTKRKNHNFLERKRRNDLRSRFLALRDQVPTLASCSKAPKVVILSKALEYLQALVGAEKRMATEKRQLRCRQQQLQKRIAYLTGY

Variants of: B1
Settings: with nfac1_human NFATC1, O95644

effect of a mutation on the interaction	Variant
with no effect	D351H

Variants of: B2
Settings: with rb_human RB1, P06400

effect of a mutation on the interaction	Variant
with no effect	D351H

Variants of: B3
Settings: with 1433s_human SFN

effect of a mutation on the interaction	Variant
with no effect	G386D

Variants of: B3
Settings: with 1433s_human SFN
Remark: another data set of the same source

effect of a mutation on the interaction	Variant
with no effect	D351H

Variants of: B3
Settings: with 1433s_human SFN
Remark: another data set of the same source

effect of a mutation on the interaction	Variant
with no effect	R361H

Variants of: B4
Settings: with men1_human MEN1, O00255

effect of a mutation on the interaction	Variant
with no effect	D351H

Variants of: B4
Settings: with men1_human MEN1, O00255
Remark: another data set of the same source

effect of a mutation on the interaction	Variant
with no effect	G386D

Variants of: B4
Settings: with men1_human MEN1, O00255
Remark: another data set of the same source

effect of a mutation on the interaction	Variant
with no effect	R361C

Variants of: B4
Settings: with men1_human MEN1, O00255
Remark: another data set of the same source

effect of a mutation on the interaction	Variant
with no effect	R361H

Variants of: B5
Settings: with mycl_human MYCL

effect of a mutation on the interaction	Variant
with no effect	G386D

Variants of: B5
Settings: with mycl_human MYCL
Remark: another data set of the same source

effect of a mutation on the interaction	Variant
with no effect	D351H

Variants of: B5
Settings: with mycl_human MYCL
Remark: another data set of the same source

effect of a mutation on the interaction	Variant
with no effect	R361H
